What was measured:
[1] = biological target: SARS-CoV2 RBD-8h (Delta) (SARS-CoV-2 (Delta)) (UniProt P0DTC2); assay: BLI, IgG protein immobilized, monomeric RBD-8h analyte
[2] = biological target: SARS-CoV2 RBD-8h (Gamma) (SARS-CoV-2 (Gamma)) (UniProt P0DTC2); assay: as above

Substance: VIR-7831 (sotrovimab) (antibody)
- Kd [1]: < 100 pM
- koff [1]: < 1e-07 s⁻¹
- kon [1]: 100000 M⁻¹ s⁻¹
- kon [2]: 97000 M⁻¹ s⁻¹

Reference: patent US20240398911A1
